Measurements as given in patent US20050287527A1, “Quantitative ranking of transient ligand binding to target biomolecules” (National Research Council of Canada, priority 2002, published 2005).

How the values were obtained:
[1] = biological target: human prothrombin (human), P00734; assay: 15N CPMG NMR relaxation dispersion, two-site fit; Tyr63; 288 K
[2] = biological target: human prothrombin (human), P00734; assay: 15N CPMG NMR relaxation dispersion, two-site fit; Glu58; 288 K
[3] = biological target: human prothrombin (human), P00734; assay: 15N CPMG NMR relaxation dispersion, two-site fit; Phe56; 288 K
[4] = biological target: human prothrombin (human), P00734; assay: 15N CPMG NMR relaxation dispersion, two-site fit; Glu62; 288 K
[5] = biological target: human prothrombin (human), P00734; assay: 15N CPMG NMR relaxation dispersion, two-site fit; Ile59; 288 K
[6] = biological target: human prothrombin (human), P00734; assay: 15N CPMG NMR relaxation dispersion, two-site fit; Glu57; 288 K
[7] = biological target: human prothrombin (human), P00734; assay: 15N CPMG NMR relaxation dispersion, full three-site fit of eighteen curves; 298 K
[8] = biological target: human prothrombin (human), P00734; assay: 15N CPMG NMR relaxation dispersion, linear three-site fit of eighteen curves; 298 K
[9] = biological target: human prothrombin (human), P00734; assay: 15N CPMG NMR relaxation dispersion, linear three-site fit of Glu57; 298 K
[10] = biological target: human α-thrombin (human), P00734; assay: 15N CPMG NMR relaxation dispersion of thrombin-cleaved FD22, two-site fit, highest thrombin:ligand ratio; Arg47; FD22-C present; 288 K
[11] = biological target: human α-thrombin (human), P00734; assay: 15N CPMG NMR relaxation dispersion of thrombin-cleaved FD22, two-site fit at the highest thrombin concentration; Arg47; FD22-C present; 288 K

GDFEEIPEEYLQ (modifications not checked) [Hir(54-65)]
pb (apparent fraction of the bound peptide) [1]: 6.7% | pb (apparent fraction of the bound peptide) [2]: 6.5% | pb (apparent fraction of the bound peptide) [3]: 4.5% | pb (apparent fraction of the bound peptide) [4]: 6.9% | pb (apparent fraction of the bound peptide) [5]: 6% | pb (apparent fraction of the bound peptide) [6]: 4.9%

DFEEIPEEYLQ (not fully specified; modifications not checked) [N-acetyl-Hir(55-65)]
pb1 (population of the first bound state) [7]: 1.45% | pb2 (population of the second bound state) [7]: 1.5% | pb (total bound population) [7]: 3% | pb1 (population of the first bound state) [8]: 2.3% | pb2 (population of the second bound state) [8]: 1% | pb (total bound population) [8]: 3.35% | pb1 (population of the dissociation-competent bound state) [9]: 1.3% | pb2 (population of the second bound state) [9]: 4% | pb=pb1+pb2 (total bound population) [9]: 5.3%

FDPR (modifications not checked) [FD22-N]
pb (apparent fraction of the bound peptide) [10]: 3.2% | koff [11]: 310 s⁻¹
